Assay results published in the DeepSol protein solubility set.

experiment: soluble on expression in E. coli; label from the status in PepcDB or PDB records

Sequence	soluble on expression in E. coli
MGSDKIHHHHHHMAKSALRVLEIMEFVATHKAGCATHTEISQALGIPKSSLTALLTDLQRPGYLELDRETGRYAIGSQVMFLAHAYLRNLNIVRLGTPVVHDVFLKLNVYTTMVIPKGDMCLVVCSESLPSPLAHSLSIGQHIPMLHSALGRAILAFLEPEEVERFLHDYTPTPYTDRTKTGIEEVRKALAQVRKAGFAHMQGEYLPGIIGIAVPVFNLENRPIAAIGIGIPAVEGTTEFEKRICKQLLHSADTLSRRLGAKLKPTPSKLLRKGEEE	not soluble
MGSDKIHHHHHHMALASTLATCLNSKNTQYDIIHHPYTLSSMATAEAAHIPGDRLAKTLLLEDEMGYVAAVIPSNHHLHMAALCEQTGRKLVLAHEDEIREVFKDCDLGAIPPVAMAYGMQTYVDDSLMKHPDVYFEAGDHQELVHMSMDQFSSLMSDAEQGHFSRRMM	not soluble
MGSDKIHHHHHHMALLEVKNLKKYFPIIKRGFRRKVVGYLKAVDGISFHIEEGETLGLVGESGCGKTTTAKLIMRGIEPTEGEIVLNMDGEKVDITKLSEKELREKGVRRFLQMIFQDPYSSLNPRMTVRDIIAEPLVVNGVIKGKEEIDAIVSDLLRAVGLRPEYMQRYPHAFSGGQRQRIAIARAIALKPKLVLCDEPTSALDVSVQAQIINLLKDLQKEYNLTYLFISHDLGVVEHITNRVAVMYVGRIVELAETEELFSSPKHPYTEALLSAVPKPDPKRKRKKAQLTGEVPDPSNPPSGCYFHPRCPYAKAICKEVYPDLRNVGTDQNPHLVACHFADSLKLEGVGTM	not soluble
MGSDKIHHHHHHMANEATQELFQVLDNTAIILQNELEISYLEAVYETGENLFQKEVLQKEELSSEKQLKLQASYESIELENFSNEEIRKGLQLALLKGMKHGIQVNHQMTPDSIGFIVAYLLEKVIQKKKNVSILDPACGTANLLTTVINQLELKGDVDVHASGVDVDDLLISLALVGADLQRQKMTLLHQDGLANLLVDPVDVVISDLPVGYYPDDENAKTFELCREEGHSFAHFLFIEQGMRYTKPGGYLFFLVPDAMFGTSDFAKVDKFIKKNGHIEGIIKLPETLFKSEQARKSILILEKADVDVKPPKEVLLANLSSLTDPSVTAPILAEIENWFKSKQ	soluble
MGSDKIHHHHHHMANTPLLITLLPSSGVDLSRWLMAHYGVTYEERPHAPIFHVLALKSWGEGKDGYPLFVHADRTTKTVGCRKIAEFFDPSAPADKTLLPDPDAEPELAAQVDDIVKYSYWTIGGDVVNWSYWNFLKYKWVVWPSLTTKVPWYEKLTCLVAFRLIRFLMYKGLKLDQRVADASLKEILAGFDKFDAMLADGRPYLTGDRMTYADLATAAALGPMILAQGYHGMLPNQAKCPVFMQGIYQQLRQRPTGLFIQRMYDQHRPAQLLQI	not soluble
MGSDKIHHHHHHMAPRGNQMLGNAHFRKHWHKRIKTWFDQPARKLRRRQNRQAKAVEIAPRPVAGLLRSVVRCPQKRYNTKTRLGRGFSLQELKAAGISQAQARTIGIAVDVRRTNKTAEGLKANADRLKEYKAKLILFPKKASAPKKGDSSAEELKVAAQLRGDVLPLSHTITFDEPRQVTDAERKVEIFRLLRKERADKKYRGKREKRAREAAEENK	not soluble
MGSDKIHHHHHHMAPRIKTRDRIAQASLELFNAQGERSVTTNHIATHLGISPGNLYYHYPNKQAIIAELFAEYESHVESFLRLPEGRGLTVDDKTFYLEALLAAMWRYRFLHRDLEHLLESDPELAARYRAFAQRCLVNAKAIYRGFTEAGILRMNETQLEALTLNAWIILTSWVRFLCTTLDLDGDLSEAQLRRGIYQVLALESGHIEAQAQDAVDGISERLYVPL	not soluble
MGSDKIHHHHHHMAPRKVIITCAVTGSVHTPSMSPYLPVTPDQIASDAIAAAEAGASILHLHARDPKDGRPTADPDVFMQFLPRIKQATDAVINITTGGSSLMTLDQRLAAPLRAEPEMCSLNMGSMNFALFPMLDKPREWQHEWEPKLLEATRDTIFKNTFADMEGVLERLGKGCGTRFEFECYDVGHLYSLAHFRDRGLVSGPLFIQFVLGILGGIGADPDNLVHMKRIADKLFGDSYQFSVLAAGRQQMPLISIAAAMGGNVRVGLEDSLYDGRQLAKSNADQVRRIRGILDGLSLEVATPAEAREMLALKGGDRVAF	not soluble
MGSDKIHHHHHHMAQYSAQFNHAKVLVLGDVMLDRYWFGATNRISPEAPVPVVRVQQNEERAGGAANVAMNIASLNVPVQLLGLTGQDEAGAALTSLLQQQKIACDFVQLATHPTITKLRILSRHQQLLRLDFEEDFQNMTSADLLKKLESAVKNYGALILSDYGKGTLNEVQKMIQIARNANVPVLIDPKGTDFERYRGATLLTPNMSEFEAVVGKCHSEQEIIDKGLKLISEINLTALLVTRSEKGMTLLRPNQPVYHLPTEAKEVFDVTGAGDTVISVLATALADGRSFEEACYLANVAAGIVVGKLGTSTVSTVELENAIHGRTGTGFGVMTEAELKEAVKLAKDRGEKIVMTNGCFDILHPGHVSYLDNARKFGDRLIVAVNTDDSVKRLKGEERPINNLASRMAVLAGLSSVDWLVPFGEDTPQRLIGEVLPDLLVKGGDYKPEEIAGSKEVWANGGDVKVLNFENGFSTSNVIKKIKHLEK	not soluble
MGSDKIHHHHHHMARDLQNHLLFEVATEVTNRVGGIYSVLKSKAPVTVAQYGDNYTLLGPLNKATYESEVEKLDWEDESIFPEELLPIQKTLMSMREKGVNFVYGNWLIEGAPRVILFELDSVRHFLNEWKADLWSLVGIPSPEHDHETNDAILLGYVVVWFLGEVSKLDSSHAIIGHFHEWLAGVALPLCRKKRIDVVTIFTTHATLLGRYLCAAGDVDFYNNLQYFDVDQEAGKRGIYHRYCIERAAAHTADVFTTVSQITALEAEHLLKRKPDGILPNGLNVVKFQAVHEFQNLHALKKDKINDFVRGHFHGCFDFDLDNTVYFFIAGRYEYKNKGADMFIESLARLNYRLKVSGSKKTVVAFLIMPAKTNSFTVEALKSQAIVKSLENTVNEVTASIGKRIFEHTMRYPHNGLESELPTNLDELLKSSEKVLLKKRVLALRRPYGELPPVVTHNMCDDANDPILNQIRHVRLFNDSSDRVKVIFHPEFLNANNPILGLDYDEFVRGCHLGVFPSYYEPWGYTPAECTVMGVPSITTNVSGFGAYMEDLIETDQAKDYGIYIVDRRFKSPDESVEQLADYMEEFVNKTRRQRINQRNRTERLSDLLDWKRMGLEYVKARQLGLRRAYPEQFKQLVGETISDANMNTLAGGKKFKIARPLSVPGSPKVRSNSTVYMTPGDLGTLQDANNADDYFNLSTNGAIDNDDDDNDTSAYYEDN	not soluble
MGSDKIHHHHHHMATETLTKSDAITQSLRAAVDRNFNDQVAFLQRMVQFRSVRGEEAPQQEWLAQQFADRGYKVDTFSLADVDIASHPKAAPMDTIDPAGSMQVVATADSDGKGRSLILQGHIDVVPEGPVDLWSDPPYEAKVRDGWMIGRGAQDMKGGVSAMIFALDAIRTAGYAPDARVHVQTVTEEESTGNGALSTLMRGYRADACLIPEPTGHTLTRAQVGAVWFRLRVRGTPVHVAYSETGTSAILSAMHLIRAFEEYTKELNAQAVRDPWFGQVKNPIKFNVGIIKGGDWASSTAAWCELDCRLGLLTGDTPQEAMRGIEKCLADAQATDSFLSENPAELVWSGFQADPAVCEPGGVAEDVLTAAHKAAFNAPLDARLSTAVNDTRYYSVDYGIPALCYGPYGQGPHAFDERIDLESLRKTTLSIALFVAEWCGLRKL	not soluble
MGSDKIHHHHHHMAYQLRSAALTNYVEVARAVGLDPYQQLRAARISRSVLLDPDIRIPAQAVSRLLESSANAAGIQDFGLRMAETRQLSNLGPLAFAMRQEPTLRRALESMARYLRLQNEAIAMRIEEAEGLVMLRQEALTGVAGSLRQSTDLVVGVLYRVLALVLGPKWRPRSICFSHAAPGSTAMYLRLFGMPVLFNQEFDGIICVASDLEVPLPSYDPTMARQVQQYLDTMLAQSDATISDKVRRLVLALLPSGACTIERVAQHMGVDVRTVQRRLANYDETFSAIVTATRVDLATRYLENRERPLSEVATLLGFGSLSAFSRWFGGHFGCSVSKWRAKGFAKAVKKEGAGRSH	not soluble
MGSDKIHHHHHHMCMDRAICGNFYYGGKFDYLEVIVSDGKIAGIKKDAGNVPKTNYDGAILPAATDIHVHFRTPGETEKEDFGSGSLSAIYGGTTYVMDMPNNRFPITDYNAFGDKLGSIDSTSFADFSLYSMETGKNAMLLDRRSIGLKVYLGGSTNSTGTEVIEEGDIRKINEMNYPVVFHGESERCLKTHQMEEKNLRDHNLARPIDCEIEAAKYVSGLDIKTKIMAHVSSPDVTGNFLREVTPHHLLLNDEMPLGSFGKVNPPLRDSRTQKRLLDDYISGKFDILSSDHAPHTEDDKREFEFAKSGIIGVETRVPLFLALAQKKIVPLDVLYRTAIENPPSIFGIKKGKIEIGYDADFMVIDFTSMKRINDNRLHSKFPVSPFNGMDAIFPSHVIMRGNVVIDRYEDISDPMGVFIPKPQKE	not soluble
MGSDKIHHHHHHMCSEGLRERYVNPYTDFAFKLLFGTDLNKEILIGFLNALFDGKQVIEDVIYLNTEHLGSKETDRRAVFDVYCENEKGEKILIEMQRGEQQFFKDRSIYYATYPIREQAIKGEIWNYELKAVYVIGILNFALDDVSSSGFRHEVKLMDTTTHEVFFDKLTFVYLEMPKFHKTEQELDTLFDKWMFVLKNLARLMERPTSLQERVFNRLFEAAEIAQFSKENLYAYEESLKVYRDWNNVINTAIQKGIAEGEWMKAKAIAGNLKNAGLSIAEIAKVTGLSEDEINSL	not soluble
MGSDKIHHHHHHMDAPYVSMWTSCSGGCSNNMYQLPANYPMKEKRDNEAEHTEGRLSKNERIERQLNSLYDFRFNIVKSRTEYRAANTSGLYQPVTKFALNSFRRKLDVTAGITTSAENIRMILESDFANKVHPIREYLTALPLLNPAGHGYIKKLLNTVQVANPGEWEEYFTKWLVGVVANAMNDTGCQNHTCLVLTGDNQGQFKTWWLDNLCPSSLKNYLFTGKIDPQSKDILTLIAEYLFINIDDQLKELNKQNENALKNLITTPAVKYRRPYDIYIEEYPHLASFMASVNGNEFLTDPTGNRRFLPFEVLHIDKPTAESINMDNVYSEIMYLYRQGVRYWFNDAEIEELHLTNAEFEVQTVEFEMLMQYFEKPTEEEESLFFMTTAQILTCLRDVCPMQLSEKRLGEALRKAGFKRVQKRISNCNYSVYGYRIKPVSIPYTDNDYG	not soluble
MGSDKIHHHHHHMDEQLEQLMRQLSGLNEQVRNGAVYQSLGTRLGKLMDGIQRRRRTAVVLPDDQDGVKDVLAELRHQLEQNVPVTLTHEKLTLLTAHLSSTDMALRYQGINFTLYDALQQDALDSAQMAFLLDELSRPDALFSHILEPANTAVFGRSARVAMLAVILHFVTPDVQSHTPDLRRIVILAAMYLCLETDTRGFVNQHGWAHAFTAITDLLTVLAGTEALPRADKLFLMMTLLERVKRLNTPLIYGENDRMAMYLSELANRHQLYADTLLLSLKQWRQQVALHRRPDTIAGWNRFFNRKRLLDSLRLQSELPASLQKYLNSTIDFLG	not soluble
MGSDKIHHHHHHMDFQEKIEELRKIIKDNIEPLITSDYVHLDNPYHGNIGDILIWEGERQFLSSIKYKCLQSSSNSWCENYLHPETVILFNGGGNFGDLYRECQDFRLRVIEQFPNNRIIMFPQSIWYEDESLIAKDAAVMARHNDLTLCARDKWSYNFLKEHFGKNKILLVPDMAFYISDEYLNKYRECVFWGQKLYLRRIDKEMDFSTILDDLRGFDIRDWPSLERRPICLLILRIMKRAAYYLQKITCLTVLQRFVNRLADEYAIRIVRPYLLKRGCDFISPYSEVITTRLHGLILSILFHKPVYYINNTTGKLSAYVDTWHLQDILEVSPYVDKILEKHVD	not soluble
